Measurements reported in the supplement of paper PMC10126150.
± gives the standard deviation of the averaged measurements.

What follows are sequences tested on ATP (assay: switch fluorescence ratio, 500 uM ATP over buffer (Cy3 cluster intensity, sum of 5 cycles each) (fold (ratio)); higher = stronger signal-on switching upon ATP binding; sequences stand for … in TCGTCGGCAGCGTCAGATGTGTATAAGAGACAGTTTTTTTTTTTTTTTTTTTTTTTTT…TC). Settings: aptamer strand: ATP DNA aptamer (quencher-CACCTGGGGGAGTATTGCGGAGGAAGG + anchor), 100 nM annealed; ATP concentration: 500 uM.
How it was run: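 Between each of five buffer/ATP cycles, the flow-cell was stripped with NaOH and re-annealed. Each cycle imaged Cy3-labelled switching-strand clusters, annealed to 100 nM quencher-labelled ATP aptamer on a modified Illumina MiSeq flow-cell, first in selection buffer and then after 15 min with 500 uM ATP at 22 °C. The fluorescence ratio is summed target-cycle over summed buffer-cycle Cy3 intensity per cluster, averaged per switch-domain sequence, with clusters outside 100-1000 RFU excluded.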
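Note: ATP exposure 15 min at 22 °C before imaging.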

| Sequence | switch fluorescence ratio |
| --- | --- |
| GGGGAGTGCT | 0.9872 ± 0.004 |
| TATAGGTAAT | 1.03 ± 0.011 |
| GACGTTCGGC | 0.991 ± 0.026 |
| GAGGGGGATG | 0.979 ± 0.026 |
| CTGGTCGAAT | 1 ± 0.017 |
| TTTGGTTGAT | 0.9967 ± 0.0087 |
| TGTTTGGGGT | 0.996 ± 0.055 |
| GGTAGTAGGC | 1.014 ± 0.0019 |
| GCGGTTGGGG | 1.01 ± 0.018 |
| GGAGTGGGGG | 0.984 ± 0.036 |
| TCAGGGATTG | 0.977 ± 0.017 |
| GGGTTTCGAA | 0.9702 ± 0.0018 |
| TGGGTGCATT | 1.014 ± 0.0044 |
| GAGATAGTGT | 0.991 ± 0.036 |
| CGGCGTCCGT | 1.01 ± 0.037 |
| TATTTCGCGG | 0.993 ± 0.045 |
| GCTTAATTAG | 1.02 ± 0.017 |
| CATGTGTTGC | 0.987 ± 0.012 |
| TGGCAAAGGA | 0.989 ± 0.026 |
| GGCCGGTAAA | 1 ± 0.051 |
| CGGAGAGGCA | 0.974 ± 0.032 |
| TAAAAACTGT | 1.02 ± 0.034 |
| TCGAGAGAAA | 1.01 ± 0.016 |

| Sequence | switch fluorescence ratio |
| --- | --- |
| GTGTCGGGAA | 0.9838 ± 0.0023 |
| TACGTTTAAT | 1.04 ± 0.031 |
| TTTTGTATAA | 1.02 ± 0.02 |
| GAGGGTCGTG | 0.9629 ± 0.0013 |
| GCAGTTGGGA | 1.02 ± 0.011 |
| AAGAGGAAGC | 0.984 ± 0.049 |
| CGTGTCAGCA | 0.9937 ± 0.0055 |
| TTGGACGTGT | 0.946 ± 0.027 |
| TTCTTGGACG | 1.05 ± 0.16 |
| TTGGGTGTAG | 1.04 ± 0.025 |
| ACCGTAGCTT | 2.61 ± 0.14 |
| TAGGCTTTCG | 0.9957 ± 0.0076 |
| TGCACCATTT | 1.02 ± 0.014 |
| ATTCGTTTTG | 1.03 ± 0.017 |
| CGTAGAATGT | 0.992 ± 0.022 |
| TTTTCGGTTA | 1.01 ± 0.015 |
| GCAATTTTAG | 1.03 ± 0.035 |
| CTATTAGGGC | 1.04 ± 0.0026 |
| TAGGTCGCCA | 1.04 ± 0.011 |
| CCGGGCTGGG | 1.03 ± 0.018 |
| CGCGGTAGTC | 1.1 ± 0.046 |
| AGCAAAACGT | 1.17 ± 0.19 |
| GCAAGCGGGA | 1.07 ± 0.079 |

| Sequence | switch fluorescence ratio |
| --- | --- |
| GGATGGGTTT | 1 ± 0.016 |
| GATGTCTCGA | 0.982 ± 0.079 |
| AGGGGTAAGA | 1.01 ± 0.032 |
| ACATTCCTGT | 1.05 ± 0.046 |
| TTTAGGGTGT | 1.05 ± 0.071 |
| TGGGAACTCT | 0.994 ± 0.012 |
| TCGTGGGGTG | 0.999 ± 0.042 |
| TAATTCACCA | 1.18 ± 0.18 |
| CCAGGGGTGG | 1.02 ± 0.064 |
| CGGTAAGGGG | 0.987 ± 0.01 |
| TCTTTTATTT | 0.998 ± 0.043 |
| CAGAGTGCTG | 1.06 ± 0.03 |
| TGGCGGCTTT | 1.01 ± 0.041 |
| AATGCATCTA | 0.989 ± 0.025 |
| AGCGGGTAGG | 1.02 ± 0.013 |
| TCCGGGGAGC | 1.06 ± 0.015 |
| GGGCATGTCT | 1.03 ± 0.042 |
| TACTATGTTG | 1.02 ± 0.065 |
| ATGTTTGGGA | 0.967 ± 0.047 |
| CGGTTATATG | 1.02 ± 0.015 |
| AGTTTGAAGG | 0.9894 ± 0.0073 |
| ACTGGTATAA | 0.989 ± 0.015 |
| AAGTTTGTAG | 1 ± 0.03 |

| Sequence | switch fluorescence ratio |
| --- | --- |
| TTGAGATTTT | 0.996 ± 0.023 |
| AAAGGCTCGG | 0.978 ± 0.022 |
| AGAATCAGCA | 1.01 ± 0.019 |
| AGGAATCGGG | 0.993 ± 0.047 |
| TTTTTTCCG | 1.08 ± 0.1 |
| TGATGTGAAA | 0.977 ± 0.015 |
| TAAGCGGGTA | 1.02 ± 0.016 |
| TTGTATTATG | 1.008 ± 0.0095 |
| CCTACGTTT | 1.06 ± 0.063 |
| AATGGCGTAT | 1.02 ± 0.029 |
| ATCGCAATTG | 1.89 ± 0.36 |
| GGTGTACCGG | 1.004 ± 0.0092 |
| TGGCCATCCT | 1.62 ± 0.82 |
| AGGTACGAGG | 1.006 ± 0.003 |
| TCCAATGTAA | 1.06 ± 0.041 |
| TGCATAAATT | 0.9873 ± 0.0034 |
| TCAACGGGAA | 1.01 ± 0.014 |
| CTGCATGGGG | 1.062 ± 0.0025 |
| GGGGGTCAGC | 1 ± 0.025 |
| ATTAGTTAGC | 1.01 ± 0.05 |
| GAGTGTAAGA | 1 ± 0.034 |
| ACTGAGGCTA | 1.07 ± 0.011 |
| TGATCTCTTT | 1.03 ± 0.049 |

| Sequence | switch fluorescence ratio |
| --- | --- |
| GCTTGAAGTT | 0.991 ± 0.068 |
| TTTTTGAACG | 1.02 ± 0.018 |
| CCAAATGAGT | 0.989 ± 0.012 |
| GTGTATCGAT | 1.003 ± 0.0081 |
| AAGGCTAAAA | 1.016 ± 0.0059 |
| AATATAGGT | 1.02 ± 0.033 |
| ATGTTGTGTT | 0.9626 ± 0.0029 |
| TTTTAAGCAG | 1.05 ± 0.036 |
| AGGGGCGACT | 0.984 ± 0.03 |
| CGGATATGCG | 1.06 ± 0.085 |
| ATAAAAGCTT | 1.03 ± 0.014 |
| TATCGAATCC | 0.99 ± 0.025 |
| TTAGAAGACT | 1.08 ± 0.08 |
| GGCGGAGTGC | 1.01 ± 0.027 |
| GGGAAATAGC | 1.06 ± 0.036 |
| CCTGGGGTCT | 1.03 ± 0.015 |
| TAAGTTAGTA | 0.9786 ± 0.0091 |
| TCACAGTTGC | 0.99 ± 0.12 |
| AGAAATTTTT | 0.998 ± 0.016 |
| GGGGGTCG | 1.03 ± 0.081 |
| TGTGTTGGTG | 1.02 ± 0.033 |
| ATAGAGAGGT | 1.01 ± 0.012 |
| CTGTTACGCA | 1.201 ± 0.0046 |

| Sequence | switch fluorescence ratio |
| --- | --- |
| AGGGGGATTA | 0.993 ± 0.019 |
| GCTGTTGTTC | 0.979 ± 0.041 |
| GTGTCCTTAT | 0.998 ± 0.074 |
| GGGGGAAGTC | 1.01 ± 0.034 |
| ACCCATGCGA | 1.13 ± 0.036 |
| TTCTTACGTC | 1 ± 0.011 |
| AATAAAGCGT | 0.983 ± 0.028 |
| AATTTTACGG | 1.07 ± 0.024 |
| CTTGTTAGTA | 0.987 ± 0.027 |
| CCATAGCAGG | 3.97 ± 0.9 |
| CATGGTAGAG | 0.975 ± 0.034 |
| GTGGATTATC | 1.01 ± 0.036 |
| TTCCTATGTG | 1.01 ± 0.036 |
| AAAGCCGGTT | 0.9689 ± 0.004 |
| AACGTATATA | 1.13 ± 0.026 |
| TCGCGAGGAG | 1.04 ± 0.014 |
| TAAGGTTCAC | 1.003 ± 0.0083 |
| ATGTTGTAAG | 1.01 ± 0.039 |
| TGCCTATGGA | 1 ± 0.014 |
| CAGGCGGTTT | 0.969 ± 0.029 |
| TATTCTAGTG | 1.013 ± 0.01 |
| AATGGTCTCG | 0.9842 ± 0.006 |
| AGCCTAAGAT | 0.963 ± 0.012 |

| Sequence | switch fluorescence ratio |
| --- | --- |
| ATGATAAGGG | 0.979 ± 0.013 |
| GTTACCTTTT | 1.04 ± 0.023 |
| TTGGGGCCCT | 1.01 ± 0.029 |
| ACGCGCGCGC | 0.987 ± 0.036 |
| GGCTGGTTTC | 0.9969 ± 0.0089 |
| TACGGATCGT | 0.974 ± 0.03 |
| GTCGTTGGTT | 0.985 ± 0.033 |
| AACCGTATGG | 1 ± 0.022 |
| GTGAGTGGCA | 0.986 ± 0.029 |
| TTTTTTTCGA | 1.01 ± 0.022 |
| ATCGGGTGCG | 0.981 ± 0.022 |
| GCTTGCATGC | 1.04 ± 0.022 |
| ACCTGCATGG | 1.05 ± 0.11 |
| TTACAGTTGG | 1.03 ± 0.023 |
| GGTTAGGGAG | 1.002 ± 0.0089 |
| ATAGTTAAAT | 0.943 ± 0.089 |
| CAGGTTGCAC | 0.9894 ± 0.0069 |
| ATTCTCTTAT | 1.02 ± 0.059 |
| GGGGCAATAT | 3.69 ± 1.9 |
